Measurements as given in publication PMC5588734, “In vitro oxidative decarboxylation of free fatty acids to terminal alkenes by two new P450 peroxygenases” (Biotechnology for Biofuels, 2017).

Substrate: CCCCCCCCCCCC(=O)O
Test: initial rates of substrate consumption by GC, Hill fit
Format: biochemical, Alicyclobacillus acidocaldarius
Details: excess H2O2, pH 7.4, 28 °C, Hill n 2.1 ± 0.8
Excerpt: initial rates of substrate consumption by GC, Hill fit on CYP-Aa162

B1: CYP-Aa162 (Alicyclobacillus acidocaldarius LAA1) (protein)
chain: MNQCIPRDRTFDSSLALIKEGYLFIKNRVDQYQSDIFEARLLLENVVCMHGAEAAKLFYNTELFQRQGALPKRVQKTLFGENAIQTLDGTAHLHRKQLFLSLLTPDQEKSLATLATTQWRECAKVWENADRVVLFEEAKRMLCRIACQWTGVPLDESEVSKRADDFGAMVDAFGAVGPRHWKGRRARARAEAWLRQMIDEIRIGLRSVDEHTPLHVVAFWRDVNGNLLDAQMVAIELINLLRPIVAISTFITFSALALHEHPTWRDRLKARNEADIEMFVQEVRRYYPFAPFLGARVKKDFVWRGYEFKRGTLVLLDVYGTHHDARLWDSPNEFRPERFMRKTVGPFDLIPQGGGDSHTGHRCPGEGATIEIMKASVDFLVNQIDFEVPAQDLSYRLDVMPTLPKSGFVLTHVHRKFIASPTIATPNGSEALPSEV
B1 gave a K0.5 of 93.1 ± 37.7 µM, a kcat of 0.768 ± 0.285 s⁻¹ and a kcat/Km of 8330 M⁻¹ s⁻¹.
